T1: full-length D. melanogaster ultraspiracle receptor (DmUSP) (Drosophila melanogaster)
T1 sequence (P20153 1-508, looked up): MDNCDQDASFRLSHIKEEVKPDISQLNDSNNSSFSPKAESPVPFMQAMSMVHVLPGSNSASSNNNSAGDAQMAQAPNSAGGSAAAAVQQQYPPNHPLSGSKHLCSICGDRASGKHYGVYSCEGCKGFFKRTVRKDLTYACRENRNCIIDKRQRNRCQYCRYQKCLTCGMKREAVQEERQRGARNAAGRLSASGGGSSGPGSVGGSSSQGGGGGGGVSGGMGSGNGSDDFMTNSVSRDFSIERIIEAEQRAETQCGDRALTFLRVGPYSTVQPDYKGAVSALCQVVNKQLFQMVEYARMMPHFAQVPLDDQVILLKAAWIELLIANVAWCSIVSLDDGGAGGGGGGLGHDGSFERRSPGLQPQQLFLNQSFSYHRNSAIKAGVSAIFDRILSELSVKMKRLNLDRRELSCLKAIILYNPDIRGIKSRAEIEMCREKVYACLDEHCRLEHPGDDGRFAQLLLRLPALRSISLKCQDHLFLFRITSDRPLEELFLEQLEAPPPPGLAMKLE


Legend:
Experiment in all cases: cell-based or functional assay
[1] = target: D. melanogaster ultraspiracle receptor with deletion of the AB transactivation domain (Dm ΔAB USP) (Drosophila melanogaster) (UniProt P20153)
[2] = target: T1, full-length D. melanogaster ultraspiracle receptor (DmUSP) (Drosophila melanogaster)
[3] = target: full-length mosquito A. aegypti ultraspiracle receptor, a-form (AaUSPa) (Aedes aegypti)
[4] = target: full-length mosquito A. aegypti ultraspiracle receptor, b-form (AaUSPb) (Aedes aegypti)
[5] = target: full-length spruce budworm C. fumiferana ultraspiracle receptor (CfUSP) (Choristoneura fumiferana)
[6] = target: mouse RXR γ (retinoid X receptor γ) (mouse) (UniProt P28705)
Chain of mouse RXR γ (retinoid X receptor γ) (mouse) (P28705 whole entry, the tested form may be a part): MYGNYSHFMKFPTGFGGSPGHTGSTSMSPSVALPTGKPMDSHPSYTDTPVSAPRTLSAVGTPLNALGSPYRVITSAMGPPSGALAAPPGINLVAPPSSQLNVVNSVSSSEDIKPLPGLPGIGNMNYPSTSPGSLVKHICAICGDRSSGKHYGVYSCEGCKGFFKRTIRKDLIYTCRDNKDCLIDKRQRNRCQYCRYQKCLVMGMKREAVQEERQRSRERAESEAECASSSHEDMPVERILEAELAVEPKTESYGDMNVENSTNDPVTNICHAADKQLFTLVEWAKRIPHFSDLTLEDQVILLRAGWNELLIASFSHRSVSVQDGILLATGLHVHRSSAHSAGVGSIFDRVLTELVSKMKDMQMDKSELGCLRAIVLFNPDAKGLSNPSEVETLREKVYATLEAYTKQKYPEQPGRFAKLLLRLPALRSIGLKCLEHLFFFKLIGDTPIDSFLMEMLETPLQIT

[7] = target: spruce budworm C. fumiferana ultraspiracle receptor with deletion of the A/B transactivation domain (Cf ΔAB USP) (Choristoneura fumiferana)
[8] = target: human RXR α (retinoid X receptor α) (human) (UniProt P19793)
Chain of human RXR α (retinoid X receptor α) (human) (P19793 whole entry, the tested form may be a part): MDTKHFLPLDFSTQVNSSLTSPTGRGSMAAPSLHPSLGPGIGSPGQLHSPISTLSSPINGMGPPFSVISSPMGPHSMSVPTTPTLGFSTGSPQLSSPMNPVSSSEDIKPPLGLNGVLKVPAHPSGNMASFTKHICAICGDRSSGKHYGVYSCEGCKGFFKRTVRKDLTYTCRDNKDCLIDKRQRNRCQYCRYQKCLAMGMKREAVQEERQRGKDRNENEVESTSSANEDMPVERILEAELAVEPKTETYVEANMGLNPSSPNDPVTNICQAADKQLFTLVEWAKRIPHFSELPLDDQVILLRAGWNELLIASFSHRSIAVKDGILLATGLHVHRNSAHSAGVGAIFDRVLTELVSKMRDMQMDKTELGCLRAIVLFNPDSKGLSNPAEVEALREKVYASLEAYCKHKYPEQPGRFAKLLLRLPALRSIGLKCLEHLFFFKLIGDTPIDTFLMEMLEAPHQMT

[9] = target: mosquito A. aegypti ultraspiracle receptor with deletion of the A/B transactivation domain (Aa ΔAB USP) (Aedes aegypti)
[10] = target: mouse RXR β (retinoid X receptor β) (mouse) (UniProt P28704)
Chain of mouse RXR β (retinoid X receptor β) (mouse) (P28704 111-520 limits assumed): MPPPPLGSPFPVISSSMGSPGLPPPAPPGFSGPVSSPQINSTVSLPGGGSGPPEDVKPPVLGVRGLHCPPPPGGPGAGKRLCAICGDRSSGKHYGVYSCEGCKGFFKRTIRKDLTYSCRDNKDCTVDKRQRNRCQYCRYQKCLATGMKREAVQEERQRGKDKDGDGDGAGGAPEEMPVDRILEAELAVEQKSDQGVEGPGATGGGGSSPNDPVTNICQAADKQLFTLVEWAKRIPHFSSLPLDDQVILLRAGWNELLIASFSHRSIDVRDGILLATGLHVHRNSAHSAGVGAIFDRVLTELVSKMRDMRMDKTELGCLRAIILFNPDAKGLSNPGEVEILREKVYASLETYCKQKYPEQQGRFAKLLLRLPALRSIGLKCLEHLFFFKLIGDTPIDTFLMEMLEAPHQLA

Molecule | β-galactosidase activity (yeast 6x EcRE-lacZ reporter), DMSO, without GRIP1 [2] | β-galactosidase activity (yeast 6x EcRE-lacZ reporter), RH 5992 10 µM, without GRIP1 [2] | β-galactosidase activity (yeast 6x EcRE-lacZ reporter), DMSO, with GRIP1 [3] | β-galactosidase activity (yeast 6x EcRE-lacZ reporter), RH 5992 10 µM, with GRIP1 [3] | β-galactosidase activity (yeast 6x EcRE-lacZ reporter), DMSO, with GRIP1 [4] | β-galactosidase activity (yeast 6x EcRE-lacZ reporter), RH 5992 10 µM, with GRIP1 [4] | β-galactosidase activity (yeast 6x EcRE-lacZ reporter), DMSO, with GRIP1 [6] | β-galactosidase activity (yeast 6x EcRE-lacZ reporter), RH 5992 10 µM, with GRIP1 [6] | β-galactosidase activity (yeast 6x EcRE-lacZ reporter), DMSO, with GRIP1 [7] | β-galactosidase activity (yeast 6x EcRE-lacZ reporter), RH 5992 10 µM, with GRIP1 [7] | β-galactosidase activity (yeast 6x EcRE-lacZ reporter), DMSO, without GRIP1 [3] | β-galactosidase activity (yeast 6x EcRE-lacZ reporter), RH 5992 10 µM, without GRIP1 [3] | β-galactosidase activity (yeast 6x EcRE-lacZ reporter), DMSO, without GRIP1 [4] | β-galactosidase activity (yeast 6x EcRE-lacZ reporter), RH 5992 10 µM, without GRIP1 [4] | β-galactosidase activity (yeast 6x EcRE-lacZ reporter), DMSO, without GRIP1 [5] | β-galactosidase activity (yeast 6x EcRE-lacZ reporter), RH 5992 10 µM, without GRIP1 [5] | β-galactosidase activity (yeast 6x EcRE-lacZ reporter), DMSO, without GRIP1 [7] | β-galactosidase activity (yeast 6x EcRE-lacZ reporter), RH 5992 10 µM, without GRIP1 [7] | β-galactosidase activity (yeast 6x EcRE-lacZ reporter), DMSO, with GRIP1 [8] | β-galactosidase activity (yeast 6x EcRE-lacZ reporter), RH 5992 10 µM, with GRIP1 [8] | further results
N-terminal truncated D. melanogaster EcR B-1 ecdysone receptor (Dm ΔN EcR) (from UniProt P34021 221-878) | 0.152 | 0.182 | 0.243 | 1.86 | 0.251 | 2.07 | 0.364 | 1.28 | 0.235 | 0.59 | – | – | – | – | – | – | – | – | – | – | β-galactosidase activity (yeast 6x EcRE-lacZ reporter), DMSO, with GRIP1 [1]: 0.34; β-galactosidase activity (yeast 6x EcRE-lacZ reporter), RH 5992 10 µM, with GRIP1 [1]: 2.32; β-galactosidase activity (yeast 6x EcRE-lacZ reporter), DMSO, with GRIP1 [2]: 0.424; β-galactosidase activity (yeast 6x EcRE-lacZ reporter), RH 5992 10 µM, with GRIP1 [2]: 2.54; β-galactosidase activity (yeast 6x EcRE-lacZ reporter), DMSO, with GRIP1 [5]: 1.15; β-galactosidase activity (yeast 6x EcRE-lacZ reporter), RH 5992 10 µM, with GRIP1 [5]: 1.41
full-length mosquito A. aegypti ecdysone receptor (AaEcR) (from UniProt P49880 1-776) | – | – | – | – | – | – | – | – | – | – | 2.3 | 2.45 | 3 | 2.7 | – | – | – | – | – | – | –
full-length spruce budworm C. fumiferana ecdysone receptor (CfEcR) | – | – | – | – | – | – | – | – | 0.223 | 0.492 | – | – | – | – | 2.73 | 3 | 0.205 | 0.241 | – | – | –
mosquito A. aegypti ecdysone receptor with deletion of the A/B transactivation domain (Aa ΔAB EcR) (from UniProt P49880 285-776) | – | – | 0.272 | 2.03 | 0.24 | 2.07 | 0.496 | 2.67 | 0.25 | 3 | 0.194 | 0.209 | 0.177 | 0.184 | – | – | – | – | 0.544 | 2.03 | β-galactosidase activity (yeast 6x EcRE-lacZ reporter), DMSO, with GRIP1 [9]: 0.194; β-galactosidase activity (yeast 6x EcRE-lacZ reporter), DMSO, without GRIP1 [9]: 0.187; β-galactosidase activity (yeast 6x EcRE-lacZ reporter), RH 5992 10 µM, with GRIP1 [9]: 1.37; β-galactosidase activity (yeast 6x EcRE-lacZ reporter), RH 5992 10 µM, without GRIP1 [9]: 0.196; β-galactosidase activity (yeast 6x EcRE-lacZ reporter), DMSO, with GRIP1 [10]: 0.231; β-galactosidase activity (yeast 6x EcRE-lacZ reporter), RH 5992 10 µM, with GRIP1 [10]: 1.98
spruce budworm C. fumiferana ecdysone receptor with deletion of the AB transactivation domain (Cf ΔAB EcR) | – | – | – | – | – | – | 0.2 | 1.03 | 0.2 | 2.5 | – | – | – | – | 2.68 | 3 | 0.209 | 0.234 | 0.27 | 2.06 | β-galactosidase activity (yeast 6x EcRE-lacZ reporter), DMSO, with GRIP1 [10]: 0.205; β-galactosidase activity (yeast 6x EcRE-lacZ reporter), RH 5992 10 µM, with GRIP1 [10]: 0.456; β-galactosidase activity (yeast 6x EcRE-lacZ reporter), RH 5992 10 µM, with GRIP1 (Table 4 prints another value than Table 3 for this combination) [7]: 3
full-length D. melanogaster EcR B-1 ecdysone receptor (receptor, Drosophila melanogaster, UniProt P34021 1-878, looked up) MKRRWSNNGGFMRLPEESSSEVTSSSNGLVLPSGVNMSPSSLDSHDYCDQDLWLCGNESGSFGGSNGHGLSQQQQSVITLAMHGCSSTLPAQTTIIPINGNANGNGGSTNGQYVPGATNLGALANGMLNGGFNGMQQQIQNGHGLINSTTPSTPTTPLHLQQNLGGAGGGGIGGMGILHHANGTPNGLIGVVGGGGGVGLGVGGGGVGGLGMQHTPRSDSVNSISSGRDDLSPSSSLNGYSANESCDAKKSKKGPAPRVQEELCLVCGDRASGYHYNALTCEGCKGFFRRSVTKSAVYCCKFGRACEMDMYMRRKCQECRLKKCLAVGMRPECVVPENQCAMKRREKKAQKEKDKMTTSPSSQHGGNGSLASGGGQDFVKKEILDLMTCEPPQHATIPLLPDEILAKCQARNIPSLTYNQLAVIYKLIWYQDGYEQPSEEDLRRIMSQPDENESQTDVSFRHITEITILTVQLIVEFAKGLPAFTKIPQEDQITLLKACSSEVMMLRMARRYDHSSDSIFFANNRSYTRDSYKMAGMADNIEDLLHFCRQMFSMKVDNVEYALLTAIVIFSDRPGLEKAQLVEAIQSYYIDTLRIYILNRHCGDSMSLVFYAKLLSILTELRTLGNQNAEMCFSLKLKNRKLPKFLEEIWDVHAIPPSVQSHLQITQEENERLERAERMRASVGGAITAGIDCDSASTSAAAAAAQHQPQPQPQPQPSSLTQNDSQHQTQPQLQPQLPPQLQGQLQPQLQPQLQTQLQPQIQPQPQLLPVSAPVPASVTAPGSLSAVSTSSEYMGGSAAIGPITPATTSSITAAVTASSTTSAVPMGNGVGVGVGVGGNVSMYANAQTAMALMGVALHSHQEQLIGGVAVKSEHSTTA | 2.09 | 1.95 | – | – | – | – | – | – | – | – | – | – | – | – | – | – | – | – | – | – | –
